Several values for one entry are separate records, joined by “and”; a condition that tells them apart may be missing. Equal entries are not always repeated.
How the values were obtained:
[1] = molecular target: T1, CLL-1 (CLEC12A) on CLL-1 positive cell lines (U937, OCI-AML-5) (human, UniProt Q5QGZ9 1-265); assay: cell-based or functional assay
T1 sequence: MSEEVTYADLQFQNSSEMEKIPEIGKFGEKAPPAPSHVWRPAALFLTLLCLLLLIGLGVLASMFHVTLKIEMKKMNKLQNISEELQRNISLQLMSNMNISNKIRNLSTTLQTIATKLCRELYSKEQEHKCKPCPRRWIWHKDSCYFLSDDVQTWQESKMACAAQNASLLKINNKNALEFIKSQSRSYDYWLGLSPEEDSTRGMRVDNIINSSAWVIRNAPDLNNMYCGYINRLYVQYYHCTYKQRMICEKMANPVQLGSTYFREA

[2] = molecular target: T1, CLL-1 (CLEC12A) on CLL-1 positive cell …; assay: flow cytometry on CLL-1 positive U937 cells, FMC63-PE detection
CD33 on U937 cells [3] = molecular target: T2, CD33 on U937 cells (UniProt P20138 18-364, limits assumed); assay: flow cytometry on U937 cells (cell line per paragraph 272), purified fusion protein, detection with FMC63-PE, % Binding
T2 construct: whole, on cells

biotinylated CD33 = biotinylated CD33 (UniProt P20138 18-259, biotinylated (site not stated)); assay: ELISA: fusion protein captured on FMC63, biotinylated CD33, HRP-SA
CD33 on U937 cells [4] = molecular target: T2, CD33 on U937 cells; assay: flow cytometry on U937 cells (cell line per paragraph 272), purified fusion protein, detection with FMC63-PE, % Binding; the cells carry both CLEC12A and CD33, the value is for the whole cell and is not split between the two antigens
[5] = molecular target: T1, CLL-1 (CLEC12A) on CLL-1 positive cell …; assay: as above
Molm14 cells = assay: CAR-CD19 T cell cytotoxicity bridged by purified fusion protein, luciferase Molm14 cells; format: cell-based; settings: FIG. 21A
Description: To test cytoxicity, luciferase labeled Molm14 or U937 cells were targeted for cytotoxic killing using a CAR19 T cell preparation and the purified proteins #330, #410 and #440 added in a dose titration. 1×10^4 target cells were added to each well (96 clear round bottom plate) in RPMI medium. The protein titration was started at 180 ng/ml with 3-fold serial titration into corresponding wells (25 μl per well). CAR-CD19 T cells were added at various E:T ratios to the target cells. After 48 hours the plate was centrifuged (450 RCF for 5 minutes) and the cells were washed 1× with PBS then centrifuged a second time. 20 μl lysis buffer was added into each well. The cell lysate was transferred to a 96 opaque white plate. The plates were read in a luminometer with an injector (Glomax Multi Detection System, Promega). The percent killing was calculated based upon the average loss of luminescence of the experimental vs the control (target cell only or target cell plus fusion protein only).

CD33 = CD33 (Homo sapiens, UniProt P20138); assay: ELISA of fusion proteins, FMC63 coat, biotinylated CD33 detection; format: binding; settings: ELISA, FMC63 coat, biotinylated CD33
Description: ELISAs for binding to CD19, CLEC12A and CD33 were run using purified fusion proteins #330, #410 and #440. A 96 well plate was coated with 1.0 μg/ml FMC63 (Novus) in 0.1 M carbonate, pH 9.5 overnight at 4° C. The plate was blocked with 0.3% non-fat milk in TBS for 1 hour at room temperature. After washing in TBST (0.1 M Tris, 0.5 M NaCl, 0.05% Tween20) 3 times, the fusion protein supernatant was titrated using 3-fold dilutions in 1% BSA in TBS and incubated 1 hour at room temperature. For detection by anti-His, after washing 3 times in TBST, HRP-anti-His (BioLegend) was added at 1:2000. The plate was incubated at room temperature in the dark for 1 hour. For detection of binding to CLEC12A, biotinylated CLEC12A was added at 0.5 μg/ml and incubated for 1 hour. This was followed by adding HRP-SA (Pierce) at 1:2000 and incubated at room temperature in the dark for 1 hour. For testing binding to CD33, biotinylated CD33 was added at 0.5 μg/ml and incubated for 1 hour. This was followed by adding HRP-SA (Pierce) at 1:2000 and incubated at room temperature in the dark for 1 hour. Then, 1-Step Ultra TMB-ELISA (Thermo Fisher) solution, was added and the plate read at […]. Curves were fit using a four-parameter logistic (4 PL) regression to calculate the EC50.

CLEC12A = molecular target: T3, CLEC12A (Homo sapiens, UniProt Q5QGZ9, K244Q); assay: ELISA of fusion proteins, FMC63 coat, biotinylated CLEC12A detection; format: binding
T3 sequence (Q5QGZ9 65-265 K244Q): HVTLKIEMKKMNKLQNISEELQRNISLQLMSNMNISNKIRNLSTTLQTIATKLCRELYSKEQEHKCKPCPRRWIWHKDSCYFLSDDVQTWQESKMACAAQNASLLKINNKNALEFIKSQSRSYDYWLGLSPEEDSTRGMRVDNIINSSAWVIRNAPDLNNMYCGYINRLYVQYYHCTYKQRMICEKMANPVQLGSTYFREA

B1: CD19 variant-anti-CLL-1 VHH(1B12) (construct #321) (other)
chain: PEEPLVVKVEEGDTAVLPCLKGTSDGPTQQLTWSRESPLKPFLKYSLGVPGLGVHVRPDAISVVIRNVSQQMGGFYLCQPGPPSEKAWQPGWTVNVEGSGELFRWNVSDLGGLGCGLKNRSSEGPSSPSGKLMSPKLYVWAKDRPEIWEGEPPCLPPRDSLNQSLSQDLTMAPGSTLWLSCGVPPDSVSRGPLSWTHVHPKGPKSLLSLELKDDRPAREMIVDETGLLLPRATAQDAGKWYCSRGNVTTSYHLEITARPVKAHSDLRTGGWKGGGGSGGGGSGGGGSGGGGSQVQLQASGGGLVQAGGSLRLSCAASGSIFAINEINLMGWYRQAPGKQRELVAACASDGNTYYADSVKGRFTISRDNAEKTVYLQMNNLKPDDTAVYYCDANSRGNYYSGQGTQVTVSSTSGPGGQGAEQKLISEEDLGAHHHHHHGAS
notes: Fusion of a CD19 variant extracellular domain, linker, anti-CLL-1 VHH 1B12 and myc-His tag
CLEC12A-cell cytotoxicity (IC50 n = 2-3) [1]: 27 pM
EC50 [2]: 3 nM

B2: anti-CD33 scFv-variant CD19-His (construct #410) (other)
chain: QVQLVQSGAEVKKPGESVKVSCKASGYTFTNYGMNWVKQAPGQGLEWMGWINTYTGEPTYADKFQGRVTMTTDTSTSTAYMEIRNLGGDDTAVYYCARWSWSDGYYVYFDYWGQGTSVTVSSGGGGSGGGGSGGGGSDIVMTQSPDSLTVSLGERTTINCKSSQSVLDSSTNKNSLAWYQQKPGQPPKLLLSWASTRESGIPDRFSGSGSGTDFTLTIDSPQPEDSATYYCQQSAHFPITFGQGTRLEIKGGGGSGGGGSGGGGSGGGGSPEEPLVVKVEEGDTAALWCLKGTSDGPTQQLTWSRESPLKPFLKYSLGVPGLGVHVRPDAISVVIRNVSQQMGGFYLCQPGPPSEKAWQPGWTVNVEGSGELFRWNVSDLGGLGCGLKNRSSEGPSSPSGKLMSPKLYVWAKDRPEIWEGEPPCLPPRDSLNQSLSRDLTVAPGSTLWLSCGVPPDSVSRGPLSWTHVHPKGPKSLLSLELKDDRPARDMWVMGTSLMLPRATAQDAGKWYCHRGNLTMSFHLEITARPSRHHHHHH
notes: also called anti-CD33 scFv fusion protein
EC50 (CD33 on U937 cells [3]): 0.0213 µg/mL and 0.37 nM
EC50 (biotinylated CD33): 0.003 µg/mL and 0.0522 nM

B3: anti-CD33 scFv-anti-CLL VHH (2H3)-CD19 variant (construct #440) (other)
chain: QVQLVQSGAEVKKPGESVKVSCKASGYTFTNYGMNWVKQAPGQGLEWMGWINTYTGEPTYADKFQGRVTMTTDTSTSTAYMEIRNLGGDDTAVYYCARWSWSDGYYVYFDYWGQGTSVTVSSGGGGSGGGGSGGGGSDIVMTQSPDSLTVSLGERTTINCKSSQSVLDSSTNKNSLAWYQQKPGQPPKLLLSWASTRESGIPDRFSGSGSGTDFTLTIDSPQPEDSATYYCQQSAHFPITFGQGTRLEIKGGGGSGGGGSGGGGSGGGGSQVQLQESGGGLVQAGGSLRLSCVASGSIRSINVMGWYRQAPGKQRELVAACASDGNTYYADSVKGRFTISRDNAEKTVYLQMNNLKPDDTAVYYCDANSRGNYYSGQGTQVTVSSTSGPGGQGAGGGGSGGGGSGGGGSGGGGSPEEPLVVKVEEGDTAALWCLKGTSDGPTQQLTWSRESPLKPFLKYSLGVPGLGVHVRPDAISVVIRNVSQQMGGFYLCQPGPPSEKAWQPGWTVNVEGSGELFRWNVSDLGGLGCGLKNRSSEGPSSPSGKLMSPKLYVWAKDRPEIWEGEPPCLPPRDSLNQSLSRDLTVAPGSTLWLSCGVPPDSVSRGPLSWTHVHPKGPKSLLSLELKDDRPARDMWVMGTSLMLPRATAQDAGKWYCHRGNLTMSFHLEITARPSRHHHHHH
EC50 (CD33 on U937 cells [4]): 0.00796 µg/mL and 0.111 nM
EC50 [5]: 0.00796 µg/mL and 0.111 nM
EC50 (biotinylated CD33): 0.0021 µg/mL and 0.0292 nM

B4: #410: fusion protein containing the CD19 ECD and anti-CD33 scFv; SEQ ID NO:325 (protein)
chain: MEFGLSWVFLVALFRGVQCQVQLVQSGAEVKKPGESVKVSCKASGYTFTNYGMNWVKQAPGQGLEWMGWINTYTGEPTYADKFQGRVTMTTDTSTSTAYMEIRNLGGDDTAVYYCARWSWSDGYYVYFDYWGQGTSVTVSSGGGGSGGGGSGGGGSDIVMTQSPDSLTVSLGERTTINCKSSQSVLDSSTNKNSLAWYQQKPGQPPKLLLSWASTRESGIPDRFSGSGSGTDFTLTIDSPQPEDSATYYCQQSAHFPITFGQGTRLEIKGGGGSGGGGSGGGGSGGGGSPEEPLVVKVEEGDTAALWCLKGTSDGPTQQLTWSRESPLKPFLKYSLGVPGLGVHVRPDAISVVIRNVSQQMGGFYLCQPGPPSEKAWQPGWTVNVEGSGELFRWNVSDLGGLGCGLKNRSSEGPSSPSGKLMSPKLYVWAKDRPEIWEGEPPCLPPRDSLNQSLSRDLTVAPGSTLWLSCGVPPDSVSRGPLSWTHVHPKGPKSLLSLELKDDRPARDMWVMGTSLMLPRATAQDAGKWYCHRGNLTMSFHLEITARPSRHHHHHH
cytotoxicity on Molm14 cells (Molm14 cells): about equipotent
CD33 binding EC50 (CD33): 3.0 ng/mL
CLEC12A binding EC50 pM (CLEC12A): ∞
CLEC12A binding EC50 ng/ml (CLEC12A): ∞
